Km and kcat data for 1 protein are collected here from article PMC5633918, “The coproporphyrin ferrochelatase of Staphylococcus aureus: mechanistic insights into a regulatory iron-binding site” (Biochemical Journal, 2017).

Substrate in the data set: CC1=C(CCC(=O)O)c2cc3nc(cc4[nH]c(cc5[nH]c(cc1n2)c(C)c5CCC(=O)O)c(CCC(=O)O)c4C)C(CCC(=O)O)=C3C
Nature of the data set: purified protein. It counts as biochemical, Staphylococcus aureus. Conditions: 0.7 µM Fe2+ (sub-inhibitory), 0.1 M Tris-HCl pH 8.1, 0.5% sodium cholate, 0.5% Tween 20, 1 mM beta-mercaptoethanol, 30 °C.

B1: S. aureus CpfC (coproporphyrin ferrochelatase) (Staphylococcus aureus subsp. aureus USA300) (protein)
chain: MTKKMGLLVMAYGTPYKESDIEPYYTDIRHGKRPSEEELQDLKDRYEFIGGLSPLAGTTDDQADALVSALNKAYADVEFKLYLGLKHISPFIEDAVEQMHNDGITEAITVVLAPHYSSFSVGSYDKRADEEAAKYGIQLTHVKHYYEQPKFIEYWTNKVNETLAQIPEEEHKDTVLVVSAHSLPKGLIEKNNDPYPQELEHTALLIKEQSNIEHIAIGWQSEGNTGTPWLGPDVQDLTRDLYEKHQYKNFIYTPVGFVCEHLEVLYDNDYECKVVCDDIGANYYRPKMPNTHPLFIGAIVDEIKSIF
notes: tag removal not mentioned
On to B1, for which the Km is given as 1.5 ± 0.2 µM and the kcat was 0.175 ± 0.0067 s⁻¹.
